{"source": "patent US7193044B1", "about": "“Compounds and methods for regulating apoptosis, and methods of making and screening for compounds that regulate apoptosis” (Immunogen, Inc., priority 2000, dated 2007)", "key": {"[1]": {"test_system": "BAD phosphorylation in COS-7 cells", "assay": "BAD phosphorylation in COS-7 cells (western blot band-shift)", "format": "cell-based", "settings": "anti-HA western blot, listed as HA-BAD S112A/S136A", "excerpt": "Mouse FL5.12 cells were then transfected with the expression vector encoding the shorter murine BAD of SEQ ID NO:3 or one of the three BAD mutants. Total mRNA was isolated from the transfected FL5.12 cells, and reverse transcribed into cDNA. The cDNA was then subcloned into the expression vector pcDNA3 so that the amino acid sequence of the BAD or mutant BAD, encoded by the subcloned cDNA, was in-frame and operably linked to an N-terminal hemagglutinin (“HA”) epitope encoded by the expression vector. The expression vectors encoding the HA-tagged shorter murine BAD and mutant BAD were expressed in COS-7 cells. Whole cell lysates (“WCL”) were then prepared from the COS-7 cells expressing the polypeptides. The phosphorylation of the shorter murine BAD of SEQ ID NO:3 and mutant BAD were detected by a western blot of the WCL, probed with an anti-HA antibody (“anti-HA antibody”). […] Of note, each of the BAD mutants resolved as a doublet on a 16% SDS-PAGE, even though in the amino acid sequence of each of the BAD mutants one or both of the serines corresponding to Ser112 and Ser136 were mutated, i.e., substituted with alanine. […]"}, "HeLa cells": {"test_system": "HeLa cells", "assay": "Fluorescence-based beta-galactosidase assay of BAD-induced cell death in transfected HeLa cells", "set-up": "species or system human", "settings": "SFM vs SFM+EGF, 12 hours", "experimental": "FIG. 12(B) is a graphic representation of the results of a β-galactosidase assay. HeLa cells were co-transfected with the β-galactosidase gene and either HA-BAD (“WT”), HA-BAD S155A (“S155A”), HA-BAD S112A/S136A (“S112A/S136A”) or HA-BAD S112A/S136A/S155A (“AAA”). Transfected cells were then cultured in serum-free medium (SFM) or SFM supplemented with EGF (SFM+EGF) for 12 hours. Cell lysates were prepared and BAD-induced cell death was measured by the loss of β-galactosidase activity in a fluorescence-based assay. Fluorescence was measured at 465 nm. Results shown are the average and standard deviation of triplicate transfections (this experiment was repeated two more times with similar results). Expression levels of HA-tagged BAD and BAD mutants in transfected cell lysates were detected by anti-HA western blot analysis: HA-BAD (“WT”), HA-BAD S155A (“A”), HA-BAD S112A/S136A (“AA”), and HA-BAD S112A/S136A/S155A (“AAA”).\nFIG. 12(C) is a graphic representation of the results of a β-galactosidase assay. HeLa cells were co-transfected with the β-galactosidase gene and either an empty vector (“CTL”), wild-type BAD (“WT”), the BAD S155A mutant (“S155A”) or the BAD S155D mutant (“S155D”). Cell lysates were prepared and BAD-induced cell death was measured by the loss of β-galactosidase activity in a fluorescence-based assay. Fluorescence was measured at 465 nm. Results shown are the average and standard deviation of triplicate transfections (this experiment was repeated two more times with similar results).\nHeLa cells were co-transfected with the β-galactosidase gene and either wild-type BAD, BAD S155A, BAD S112A/S136A or BAD S112A/S136A/S155A. […] Cell lysates were prepared and BAD-induced cell death was measured by the loss of β-galactosidase activity in a fluorescence-based assay. […]\nTo measure β-gal activity, HeLa cells were plated in 12-well plates at 5×10^4 cells/well one day prior to transfection. […] Beta-gal activity was measured in extracts using a fluorogenic substrate (MUG, BIO-RAD FluorAce™ β-gal Reporter Assay, #170–3150). […]"}, "GST-Bcl-XL": {"target": "GST-Bcl-XL (Homo sapiens, UniProt Q07817)", "sequence (Q07817 whole entry)": "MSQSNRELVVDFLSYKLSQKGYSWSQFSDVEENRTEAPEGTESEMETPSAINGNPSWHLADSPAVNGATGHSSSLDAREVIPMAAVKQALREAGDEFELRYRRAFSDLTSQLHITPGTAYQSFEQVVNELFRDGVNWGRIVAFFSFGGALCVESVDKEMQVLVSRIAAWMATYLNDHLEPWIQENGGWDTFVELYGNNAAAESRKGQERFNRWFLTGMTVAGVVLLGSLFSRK", "assay": "GST-Bcl-XL binding (glutathione bead pull-down) of BAD", "settings": "whole cell lysate of COS-7 cells, glutathione bead precipitation, anti-HA blot", "experimental": "In order to test whether the additional and novel phosphorylation site on BAD has functional significance, the effect on BAD binding to Bcl-XL was examined. Recombinant Bcl-XL tagged with the glutathione S-transferase (“GST”) moiety (“GST-Bcl-XL”) was incubated with WCL prepared from COS-7 cells expressing the double mutant HA-BAD S112A/S136A, and the HA-BAD S112A/S136A that bound to the GST-Bcl-XL was precipitated with GST beads. […] No HA-BAD S112A/S136A was precipitated with GST beads from the WCL that were not incubated with GST-Bcl-XL (FIG. 1, lane 4).\nThe ability of full-length BAD and mutant BAD S155A to bind Bcl-XL was also determined (FIG. 3(c)). Full-length BAD (“WT”) and mutant BAD S155A (“S155A”) were produced by in vitro translation and labeled with ^35S-methionine therein. […] Proteins bound to the beads (“Bound”) (lower panel) and samples of the reactions collected prior to incubation with the beads (“Total”) (upper panel) were analyzed by SDS-PAGE followed by autoradiography.\nFor Bcl-XL binding studies, GST-Bcl-XL (1 mg/ml final concentration) was added to cell lysates derived from BAD expressing cells, and incubated with rotation for two hours at 4° C. […] The beads were then washed with RIPA buffer, the proteins were separated by SDS-PAGE and associated BAD detected by probing the blot with anti-HA antibody."}}, "note": "Entries after “also recorded” stand apart in the source; their conditions may differ."}
{"molecule": "BAD S112A/S136A: mutant of shorter murine BAD, serines corresponding to Ser112 and Ser136 substituted with alanine (protein, left off: small tags and cut ends, mutant of shorter murine BAD, serines corresponding to Ser112 and Ser136 substituted with alanine) MFQIPEFEPSEQEDASATDRGLGPSLTEDQPGPYLAPGLLGSNIHQQGRAATNSHHGGAGAMETRSRHSAYPAGTEEDEGMEEELSPFRGRSRAAPPNLWAAQRYGRELRRMSDEFEGSFKGLPRPKSAGTATQMRQSAGWTRIIQSWWDRNLGKGGSTPSQ", "values": [{"measurement": "phosphorylation of expressed BAD mutant (lambda phosphatase-sensitive higher molecular weight band)", "setting": "[1]", "value": "phosphatase treatment completely eliminated the higher molecular weight band of the doublet; also recorded: do not eliminate the phosphorylation of BAD"}, {"measurement": "effect of EGF stimulation on pro-apoptotic activity of the BAD mutant", "setting": "HeLa cells", "value": "also suppressed by EGF stimulation"}, {"measurement": "binding to GST-Bcl-XL", "setting": "GST-Bcl-XL", "value": "only the lower molecular weight band of the doublet was detected"}]}
